Results taken from the nanobody polyreactivity screen of Harvey et al. (2022).

Test: yeast display, Sf9 membrane polyspecificity reagent, FACS + sequencing; frameworks hold sequencing errors
How it was run: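 Nanobodies from a synthetic yeast display library (Saccharomyces cerevisiae BJ5465), induced 36–48 hours with galactose, were stained 1 hour at 4 °C with 10% biotinylated, detergent-solubilized Sf9 membrane reagent, enriched on streptavidin microbeads, then FACS-sorted. Anti-HA (expression) and streptavidin (reagent binding) fluorescence set low and high (top ~1%) gates. Polyreactivity labels come from the gate of origin. Genes were colony-PCR amplified, MiSeq 2 × 250 sequenced and filtered by CDR length.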

Sequence | polyreactivity (PSR sort gate)
QVQLVESGGGLVQAGGSLRLSCAASGFTFRRYAMGWYRQAPGKEREFVAAITRSSGRTYYADSVKGRFTISRDNAKNTVYLQMNSLKPEDTAVYYCNRDTSIRHYNYWGQGTQVTVSS | high polyreactivity
QVQLVESGGGLVQAGGSLRLSCAASGRIFSFYTKGWYRQEPGKERHLVAANSGSGGSTYYADSVKGRFTISRDNAKNTVYLQMISLKPEDTEFYYCAAGYGFRYYLYDYWGQGTQVTVSS | high polyreactivity
QVQLVESGGGLVQAGGSLRLSCAASGRIFMPYAMGWYRQARGKERELFAAITSTGGSTYYADSVKGRFTISRDNAKNTVYIQMNSQKPEDTAVYYCNARRGYQPHRRDYWGQGTQVTLSS | low polyreactivity
QVQLVESGGGLVQAAGSLRLSCAASGRTFVFYAMGWYRQAPGKERELVAAISDGDRTNYADSVKGRFTISRDNAKNTVYLQMNSLKPEDTAVYYCAADREFWWAVVYTYEYYYWGQGTQVTVSS | low polyreactivity
QVQLQESGGGLVQAGGSLRLSCAASGNIFLGDTMGWYRQAPGKEREFVAGIARGGNPYYADSVKGRFTISRNNAKNTVFLQKNSLKPEDTAVHYCAVQRSHASDYNYWGQGTQVTVSS | low polyreactivity
QVQLVESGGGLVQAGGSLRLSCAASGRTFQYYAMGWYRQAPGKERELVAAISSGGSTYYADSVKGRFTISRDNAKNTVYLQMNSLKPEDTAVYYCTARWGYRRGYWGQGTQVTVSS | high polyreactivity
QVQLVESGGGLVQAGGSLRLSCAASGITFGPYAIGWYRQAPGKERELVAAISAGGGSTYYADSVKGRFTISRDNAKNSVYLQMNSLKPEDTAVYYCAAYLLHHYGGPEYYYWGQGTQVTVSS | high polyreactivity
QVQLVESGGGLVQAGGSLRLSCAASGLTFRYYTMGLYRQAPGKERELVASITSGGITYYADSVKGRFTISRDNAKNTVYLQMYSLKPEDTAVYYCAKGSYRTTYGALGVKYGYWGQGTQVNVSS | high polyreactivity
QVKLVESGGGIVQAGGSLRLTCAASGSTVRLYAMGCYRQAPGKERELVAAISTRGSSTYYADSVKGRFTISRDNAKNTVYLQMNSLKPEDTAVFYCAADAYFIYSRYWYDYWGQGTQVTVSS | high polyreactivity
QVQLVESGGGLVQAGGSLRLSCPASGGIFEGNAMGWYRQAPGKEMELVASITYGGGSTYYADSVKGRFTISRDNAKNTVYLQMNSLKPEDTAVYYCAADATTPGVQNGYGSWGQGTQVTVSS | low polyreactivity
QVQLVESGGGLVQAGGSLRLSCAASGRIFYKNAMGWYRPEPGKEREVVAAISSSGTRTYYADSVKGRFTISRENAKNTVSLQMNSLKPEDTAVYYCAAALGWYSAFGYWGQGTQVTVSS | high polyreactivity
QVQIVESGGGLVQAGGSLRLSCDASGFIFYYYAMGWYRQAPGKERELVATITSGGGSTYYADSVKGRFTISRDNAKNTVYLQMNSLKPEDTAVYYCAAKGPYYKSSRTGDYWGQGTQVTVSS | low polyreactivity
QVQLVESGGGLVQAGGSLRLSCAASGRIFPYYAMGWYRQAPGKERELVASIRYSAVNTYYADSVKGRFTISRDNAKNTVYVQMNSLKPEDTAVYYCWYTQNTLGNYWGQGTQVTVSS | low polyreactivity
QVQLVESGGGLVQAGGSLSFSCAASGNTFYRNAMGWYSQAPGKERELVAAITFSTVRTYYADSVKGRFTISRDNAKNTVYLQMNSLKPEDTAVYYCNKLYRGTWAKENGYWGQGTQVTVSS | high polyreactivity
QVQLVESGGGLVQAGGSLRLSCAASGFIFGYYAMGWYRQAPGKERELVAAISRSGGRTYYADSVKGRFTISRDNAKNTVYLQMNSLKPEDTAVYYCAKGSNRSRGYYWGQGTQVTVSS | high polyreactivity
QDQLVESGGGLVQAGGSLRLSCAASGRILRRNVMGWYRQAPGKESELVATITNSGGRTYYADSVKGRFTISRDNEKNTVYLLMNSLQPEDTAVYYCAKYGYGYTGYGYWGQGTQVTVSS | high polyreactivity

Sequence | polyreactivity (PSR sort gate)
QVQLVESGGGLVQAGGSLRLSCAASGLIFIVYAMGWYRQAPGKERELVAAISWSGGSTYYADSVKGRFTISRDNAKNTVYLQMNSLKPEDTAVYYCAAESYGVWDYEYWGQGTQVTVSS | high polyreactivity
QVQLVESGGGLVQAGGSLRLSCAASGSIFKSNAMGWYRQAPGKERELVAGISWGGGSTYYADSVKGRFTISRDNAKNTVYLQMNSLKPEDTAVYYCAAYVYYRPSALAVTGDYYWGQGTQVTVSS | low polyreactivity
QVQLVESGGGLVQAGGSLRLSCAASGLTFDWYTMGWYRQAPGKERELVATINSGGSTDYADSVKGRFTISRDNAKNTVYLQMNSLKPEDTAVYYCNAEYGYSGVGDDYWGQGTQVTVSS | low polyreactivity
QVQLVESGGGLVQAGGSLRLSCAASGFTFYYYAMGWYRQAPGKERELVAAISSRGGNTYYADSVKGRFTISRDNAKNTVYLQMNSLKPEDTAVYYCASVPLKYDYWGQGTQVTVSS | high polyreactivity
QVQLVESGGGLVQAGGSLRLSCAASGRTFARYAMGWYRQAPGKERDLVADITSGGSTNYADSVKGRFTISRDNAKNTVYLQMNSLEPEDTAVYYCAAYVVWSWFEEYEYWGQGTQVTVSS | high polyreactivity
QVQLVESGGGLVQAGGSLRLSCAASGNTFSAYAMGWYRQAPGKERELVAAISSRGGSTYYADSVKGRFTISRDNAKNTVYLQMNSLKPEDTAVYYCAAGWFGTSYRYRSSFDYWGQGTQVTVSS | high polyreactivity
QVQLVESGGCLVQAGGSLRLSCAASGIIFYRYAMGWYRQAPGKERELVAAITYSGGRTYYADSVKARFTISRDNAKNTVYLQMNSLKTEDTAVSDCAAAGRFGDYWGQGTQVTVSS | high polyreactivity
QVQLVESAGGLVQAGGSLRLSCAASGSTFLSYFMGWYRQAPGKERELVAAITGTGGRTYYADSVKGRFTISRDNAKNTVYLQMNSLKPEDSAVYYCTAYRKHGYDYWGQGTQVTVSS | high polyreactivity
QVQLVESGVGLVQAGGSLRLSCAASGRIFYLYAMGWYRQAPGKDSELVAAITWSGGSTTYADSVKVRFTISRDNAKNSVYLQMNSLKPEETAVYYCNADGWIFPSVSPMDYWGQGTQVTVSS | low polyreactivity
QDQHVESGGGLVQAGGSLRLSCSASGRTFDYYAMGWYRQAPGKERELVAAINSGGNTYYADSVKGRFTISRDNAKNTVYLQMNSLKPEDTAVYYCAAYYRDKLSGYNYWGQGTQVTVSS | high polyreactivity
QVQLVESGGGLVQAGGSLRLSCAASGFIFRRNAMGWYRQAPGKERELVAAITGGGGSTYYADSVKGRFTISRDNAKNTVYLQMNSLKPEDTAVYYCAVDWSRFYNRGGDYWGQGTQVTVSS | high polyreactivity
QVQLVESGGGLVQAGGSLRLSCAASGITFSYYAMGWYRQAPGKERELVATIRSSGGSTYYADSVKGRFTISRDNAKNTVYLQMNSLKPEDTAVYYCAVRLWFDYNYWGQGTQVTVSS | low polyreactivity
QVQLVESGGALVQAGGSLRLSCAASGRIFGYYAMGWYRQAPGKERELVAAITVSGTSTYYADSVKGRFTISRDNAKNTVYLQMNSLKPEDTAVYYCAARPRRRYYGYDSWGQGTQVTVSS | high polyreactivity
QVQLLESGGGLVQAGGSLRLSCAASGSIFFYYAMGWDRQAPGKERELVATITSGGSTSYADSVKGRFTISRDNAKNTVYLQMNSLKPEDTAVYYCAARKVTKSTYNYWGQGTQVTVSS | low polyreactivity
QDQLVESGGGLVQAGVSLRLICAASGRTFYLYAIGWYRQAPGKERELVAAITWGGATTYYADSVKGRFTISRDNAKNTVYLQMNSLKPEVTAVYYCAAGGYTVWHYQYYAMDYCGQGTQVTVSS | low polyreactivity
QVHLVESGGGLVQAGGSLRLSCAATGSTISRYAMGWYRPAPGKERELVAAISWGGNTYYADSVKGRFTISRDNAKNTVYLQMNSLKPEDTAVYYCNRYSKLYNTMDYWGQGTQVTVSS | high polyreactivity
